# Assay: soluble on expression in E. coli; label from the status in PepcDB or PDB records
row,Sequence,soluble on expression in E. coli
1,MLGAMSLRLSEFRETNLLDKILFGVLSPHEIRQLAKVTVVRGDLYEADGTPVSGGLRDPHFGAIEPGERCPVCGNSREECPGHFGKIELARPVLIPHYTDYVYKILQATCRVCGRITLPEEKIKYYRLIFRRLRGKWPQLAKTFATMVVKEAAQATQCPHCGKPQYKVVYIRPFHFYEKKPEGDVKLTPSEIRERLEKTGSEIEILGVHPERSRPEWMVATVLIVPPLAVRPSITLETGLRSEDDLTHALAEIVRQNEKLRNVIVTNAPETLIEENWMVLQEMVAAYIDNELPGARRLTHRRKRYLKTLAQRLKGKDGRIRGNLSGKRVNYSARTVISPDPYISINEVGVPEEIAKTLTIAMRVTPYNLEEARRYVLNGPDKWPGALFVYKASERKKYDLRFFKDYEKLAESLEPGDVVERHLINGDIVLFNRQPSLHRMSIMGHIVRVMPGKTFRLNLLVCPPYNADFDGDEMNLHVPRLEEAQAEAREIMLVEKHILTPRYGGPIIGGRQDYVSGAYLLTVKTRLFTKEEVERLLSVAGYKGDLPEPAILKPEPLWTGKQLASIFLPEDLSFKGKSKTNAGDLACSDELCLHDSYIVITNGKLLEGVLDKKAIGAEEPNNLLHIIALEYGNSKARQLLDSFYRMFIRMLELRGLTISLHDIDLPDRAKQEIEELIREYKGRVYSIIEEYRKGTLEPIPGRSLEESLEIKIMEVLDELRKRVQEVASNNLDPFNDVFVMARTGARGSDVNISQMAAMLGQQAVRGRRIRRGLRNRVLAHFKENDIEPEAWGFVRSSFRKGLRPTEVFFHAAAGREGLVDTAVKTSQSGYMQRRLINALQDIVVTYDGTVRDLYGNLIQLKYGEDGVDPMKTYHGKPVDVKRIIQRVKASKAETV,soluble
2,MLIAITGTPGVGKTTVAKLLAKKLNYEYVSLKDFALEKGCGRRVNDEVEVEIDELAYFIERELKGKNAVLDGHLSHLMPVDLVVVLRAHPKLIGERLRERGYDREKIGENVEAELVDAVLIEAIEEHENVIEVDTTNKSPEDVVEEIVSLINSGIKKRVGIVDWSEVYDEIIPYLRLGGELEHHHHHH,soluble
3,MLINVNFNELLLELDSLSVYRNLLNDSVIKKLYELGDLIYKKEPGTDEFIKKYNEFFFELTSGSIQSLKEHIIELILFDENPYSRQSEKLPFENIDKVLIDAASKDLDRLHVISALTSRKFKDYALENICKSESEKRFIDSLPAWEFDGRSNQGKRKLSQNCQKMIDVLVSSNKWGECVKNLSDFYFTNGSGIFARYHAFVWEPSEKPSLRGVEFPDPIRLSDFIGYEQQRLEVIENTEKFVRGLPANNVLLYGDRGTGKSSTVKAIANEYREQGLRIIEIPRKYLVDFPAVLKLIKGRSCKFIIFIDDLAFEDSEESYTVLKSVLEGGVENRPDNVLIYATSNRRHLIKEKFSDRAGFKSDDPDDEIRAQDTMQEKLSLSERFGITVVFSSPDKKQFLQIVEGLVAKRGINIDKDTLQREAMKWELMYNGRSARTARQFVDWLEGSMKLKK,soluble
4,MLIPSKLSRPVRLEHTVVRERLLAKLSGANNYRLVLITSPAGYGKTTLISQWAAGKNDLGWFSLDEGDNQQERFASYLIAAIQQATGNHCAASEAMVQKRQYASLSSLFAQLFIELADWQRPLYLVIDDYHLINNPVIHDAMRFFLRHQPENMTLVVLSRNLPQLGIANLRVRDQLLEIGSQQLAFTHQEAKQFFDCRLTSPIEADDSSRLCDDVAGWATALQLIALSARQNNSSAQHSARRFAGINASHLSDYLVDEVLDNVDARTRNFLLKSSLLRSMNDALIVRVTGEENGQMQLEEIERQGLFLQRMDDSGEWFRYHPLFGSFLRQRCQWELAVELPEIHRAAAESWMAQGFPSEAIHHALAAGDAKMLRDILLNHAWGMFNHSELGLLEQSLAALPWSNLLENPRLILLQAWLMQSQHRYSEVNTLLARAEQEMSVEMDTAMHGDFNALRAQVAINDGDQDEAERLSMVALEELPLANYYSRIVATSVHGEVLHCKGKLTKSLAVMQQTEQMARRHDVWHYALWSIIQQSEILFAQGFLQAAW,not soluble
5,MLIRKITRKNPSPDVLEEAISVMEGGGIVIYPTDTIYGLGVNALDEDAVRRLFRVKGRSPHKPVSICVSCVDEIPRFSRPSGDAMELMERILPGPYTVVLERNELIPDVITGGSSRVGIRVPDDEICRRIAARFPVTATSANISGKPPSPRLEEIVRDLDAVDLVLDAGDCLDMEPSTVIDLTVNPPRVLRRGKGPLDPVLLRGAGDV,soluble

# Source: the DeepSol protein solubility set
